Experiment [1] has as its target T1, CD32a-R131 (FcgRIIa-R131) (Homo sapiens, UniProt P12318, H167R).
T1 sequence (P12318 34-217 H167R limits assumed): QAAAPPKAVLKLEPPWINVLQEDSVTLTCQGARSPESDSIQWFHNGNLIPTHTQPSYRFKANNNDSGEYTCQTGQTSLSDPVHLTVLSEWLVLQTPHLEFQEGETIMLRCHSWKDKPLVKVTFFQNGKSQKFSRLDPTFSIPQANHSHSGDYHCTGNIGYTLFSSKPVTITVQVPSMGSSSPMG
Put plainly: SPR binding to FcgR-his: CD32a-R131. To be noted: 1 μM antibody, anti-his Fab captured FcgR-his. The procedure:
(§1) The binding of antibodies to Fc gamma receptors (FcγRs or FcgRs) was studied using biosensor technologies including Biacore surface plasmon resonance (SPR) and Fortebio Biolayer Interferometry (BLI). SPR studies were performed on a Biacore T100 instrument (GE Healthcare) at 25° C. The Fab fragment from a murine anti-6×His antibody was immobilized on a CM5 sensor chip using EDC/NHS to a density of ˜3000 RU. Various his-tagged FcgRs (7 ug/ml) were captured via the C-terminal his-tag using a contact time of 30 s at 10 ul/min, and the binding of 1.0 μM antibody was evaluated in a running buffer of 10 mM NaPO4, 130 mM NaCl, 0.05% p20 (PBS-T) pH 7.1. FcgRs used for these experiments included CD64 (FcgRI), CD32a-H131 (FcgRIIa-H131), CD32a-R131 (FcgRIIa-R131), CD32b (FcgRIIb), CD16a-V158 (FcgRIIIa-V158), CD16b-NA1 (FcgRIIIb-NA1), and CD16B-NA2 (FcgRIIIb-NA2). BLI experiments were performed on a Fortebio Octet RED instrument (Pall, Fortebio) at 25° C. in 10 mM NaPO4, 130 mM NaCl, 0.05% p20 (PBS-T) pH 7.1. Antibodies were captured out of undiluted expression supernatants on protein A coated sensors, followed by the binding of 1 μM hCD32a-H131, hCD32a-R131, hCD32b, hCD16a-V158, or 0.1 μM hCD64 analytes.

For experiment [2], the target named is CD16B-NA2 (FcgRIIIb-NA2) (Homo sapiens, UniProt O75015). Put plainly: SPR binding to FcgR-his: CD16B-NA2. The note with it: 1 μM antibody, anti-his Fab captured FcgR-his. As to the method:
as §1
For orientation: SPR reads the build-up and loss of mass on a sensor chip optically.

The target in experiment [3] is T2, CD32a-H131 (FcgRIIa-H131) (Homo sapiens, UniProt P12318).
T2 sequence (P12318 34-217 limits assumed): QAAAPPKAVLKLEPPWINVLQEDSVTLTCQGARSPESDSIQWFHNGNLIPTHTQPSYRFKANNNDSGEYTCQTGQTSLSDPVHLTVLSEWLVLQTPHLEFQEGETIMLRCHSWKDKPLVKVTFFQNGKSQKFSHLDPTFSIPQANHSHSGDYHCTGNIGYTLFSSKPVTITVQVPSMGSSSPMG
Put plainly: SPR binding to FcgR-his: CD32a-H131. To be noted: 1 μM antibody, anti-his Fab captured FcgR-his. The procedure:
as §1

Experiment [4] addresses T3, CD32b (FcgRIIb) (Homo sapiens, UniProt P31994).
T3 sequence (P31994 43-310): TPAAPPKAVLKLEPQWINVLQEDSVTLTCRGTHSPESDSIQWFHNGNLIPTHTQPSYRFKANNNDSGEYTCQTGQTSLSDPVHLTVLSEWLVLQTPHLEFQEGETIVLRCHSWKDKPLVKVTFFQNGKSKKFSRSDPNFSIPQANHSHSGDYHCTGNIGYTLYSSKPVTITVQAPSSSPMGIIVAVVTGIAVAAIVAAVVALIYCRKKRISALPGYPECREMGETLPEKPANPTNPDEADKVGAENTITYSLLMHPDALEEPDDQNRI
Put plainly: SPR binding to FcgR-his: CD32b. To be noted: 1 μM antibody, anti-his Fab captured FcgR-his. The procedure:
as §1

The target of experiment [5] is CD64 (FcgRI) (Homo sapiens, UniProt P12314). Put plainly: SPR binding of 1.0 μM antibody to anti-his Fab captured FcgR-his: CD64. The procedure: as §1
Experiment [6] concerns the target CD16a-V158 (FcgRIIIa-V158) (Homo sapiens, UniProt P08637, F176V). Put plainly: SPR binding to FcgR-his: CD16a-V158. The note with it: 1 μM antibody, anti-his Fab captured FcgR-his. The procedure:
as §1

Chain of CD16B-NA2 (FcgRIIIb-NA2) (O75015 17-200 limits assumed): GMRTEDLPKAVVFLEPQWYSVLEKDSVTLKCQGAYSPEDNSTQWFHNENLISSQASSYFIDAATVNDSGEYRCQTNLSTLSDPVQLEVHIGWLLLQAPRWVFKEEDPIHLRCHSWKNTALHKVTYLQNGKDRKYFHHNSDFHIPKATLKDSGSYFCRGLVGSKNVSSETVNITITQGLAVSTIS
Chain of CD64 (FcgRI) (P12314 16-374): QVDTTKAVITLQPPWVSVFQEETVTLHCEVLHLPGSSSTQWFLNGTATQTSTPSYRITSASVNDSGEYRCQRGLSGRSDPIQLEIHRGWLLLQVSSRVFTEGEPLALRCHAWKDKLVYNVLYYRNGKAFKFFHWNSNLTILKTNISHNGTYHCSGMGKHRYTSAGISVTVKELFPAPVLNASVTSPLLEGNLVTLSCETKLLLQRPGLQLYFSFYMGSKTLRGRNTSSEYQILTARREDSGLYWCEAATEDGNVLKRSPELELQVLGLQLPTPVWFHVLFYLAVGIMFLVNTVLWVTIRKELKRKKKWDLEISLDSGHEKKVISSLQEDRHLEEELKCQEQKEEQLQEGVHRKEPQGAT
Chain of CD16a-V158 (FcgRIIIa-V158) (P08637 17-208 F176V limits assumed): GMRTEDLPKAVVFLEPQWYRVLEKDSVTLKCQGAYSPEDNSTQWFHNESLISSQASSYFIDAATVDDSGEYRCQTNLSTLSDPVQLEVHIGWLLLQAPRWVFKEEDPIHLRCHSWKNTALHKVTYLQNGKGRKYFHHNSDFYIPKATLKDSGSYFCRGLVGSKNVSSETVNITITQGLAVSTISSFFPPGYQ

B1: mAb11-IgG2.3 (protein)
constant: ASTKGPSVFPLAPCSRSTSESTAALGCLVKDYFPEPVTVSWNSGALTSGVHTFPAVLQSSGLYSLSSVVTVPSSNFGTQTYTCNVDHKPSNTKVDKTVERKSCVECPPCPAPPVAGPSVFLFPPKPKDTLMISRTPEVTCVVVDVSHEDPEVQFNWYVDGVEVHNAKTKPREEQFNSTFRVVSVLTVVHQDWLNGKEYKCKVSNKGLPAPIEKTISKTKGQPREPQVYTLPPSREEMTKNQVSLTCLVKGFYPSDIAVEWESNGQPENNYKTTPPMLDSDGSFFLYSKLTVDKSRWQQGNVFSCSVMHEALHNHYTQKSLSLSPGK
modifications: left off: another chain or arm of the molecule
In the case of B1, the “% Rmax, binding to hCD32a-R131” value in experiment [1] stood at 17%. In experiment [2], the “% Rmax, binding to hCD16B-NA2” value is 0%. Also, the “% Rmax, binding to hCD32a-H131” value in experiment [3] was 44%. In addition, in experiment [4], the “% Rmax, binding to hCD32b” value is listed as 5%. Moreover, the “% Rmax, binding to hCD64” value in experiment [5] is reported as 2%. In experiment [6], the “% Rmax, binding to hCD16a-V158” value worked out at 1%.

B2: mAb4-IgG2.3 (protein)
constant: ASTKGPSVFPLAPCSRSTSESTAALGCLVKDYFPEPVTVSWNSGALTSGVHTFPAVLQSSGLYSLSSVVTVPSSNFGTQTYTCNVDHKPSNTKVDKTVERKSCVECPPCPAPPVAGPSVFLFPPKPKDTLMISRTPEVTCVVVDVSHEDPEVQFNWYVDGVEVHNAKTKPREEQFNSTFRVVSVLTVVHQDWLNGKEYKCKVSNKGLPAPIEKTISKTKGQPREPQVYTLPPSREEMTKNQVSLTCLVKGFYPSDIAVEWESNGQPENNYKTTPPMLDSDGSFFLYSKLTVDKSRWQQGNVFSCSVMHEALHNHYTQKSLSLSPGK
modifications: left off: another chain or arm of the molecule; small tags and cut ends
Turning to B2, in experiment [1], the “% Rmax, binding to hCD32a-R131” value is 6%. For the same molecule, the “% Rmax, binding to hCD16B-NA2” value in experiment [2] is reported as 0%. Also, the “% Rmax, binding to hCD32a-H131” value in experiment [3] was 39%. For the same molecule, the “% Rmax, binding to hCD32b” value in experiment [4] stood at 1%. Further, the “% Rmax, binding to hCD64” value in experiment [5] came to 1%. In addition, the “% Rmax, binding to hCD16a-V158” value in experiment [6] came out at 1%.

B3: mAb12-IgG2.5 (protein)
constant: ASTKGPSVFPLAPSSRSTSESTAALGCLVKDYFPEPVTVSWNSGALTSGVHTFPAVLQSSGLYSLSSVVTVPSSNFGTQTYTCNVDHKPSNTKVDKTVERKCCVECPPCPAPPVAGPSVFLFPPKPKDTLMISRTPEVTCVVVDVSHEDPEVQFNWYVDGVEVHNAKTKPREEQFNSTFRVVSVLTVVHQDWLNGKEYKCKVSNKGLPAPIEKTISKTKGQPREPQVYTLPPSREEMTKNQVSLTCLVKGFYPSDIAVEWESNGQPENNYKTTPPMLDSDGSFFLYSKLTVDKSRWQQGNVFSCSVMHEALHNHYTQKSLSLSPGK
modifications: left off: another chain or arm of the molecule
Consider B3, for which the “% Rmax, binding to hCD32a-R131” value in experiment [1] is on record as 6%. Further, the “% Rmax, binding to hCD16B-NA2” value in experiment [2] turned out to be 0%. In addition, the “% Rmax, binding to hCD32b” value in experiment [4] was 1%. Besides, the “% Rmax, binding to hCD64” value in experiment [5] is on record as 1%. Further, in experiment [6], the “% Rmax, binding to hCD16a-V158” value was 1%.

B4: mAb6-IgG2.3 (protein)
constant: ASTKGPSVFPLAPCSRSTSESTAALGCLVKDYFPEPVTVSWNSGALTSGVHTFPAVLQSSGLYSLSSVVTVPSSNFGTQTYTCNVDHKPSNTKVDKTVERKSCVECPPCPAPPVAGPSVFLFPPKPKDTLMISRTPEVTCVVVDVSHEDPEVQFNWYVDGVEVHNAKTKPREEQFNSTFRVVSVLTVVHQDWLNGKEYKCKVSNKGLPAPIEKTISKTKGQPREPQVYTLPPSREEMTKNQVSLTCLVKGFYPSDIAVEWESNGQPENNYKTTPPMLDSDGSFFLYSKLTVDKSRWQQGNVFSCSVMHEALHNHYTQKSLSLSPGK
modifications: left off: another chain or arm of the molecule
Consider B4, for which the “% Rmax, binding to hCD32a-R131” value in experiment [1] is listed as 14%. The “% Rmax, binding to hCD16B-NA2” value in experiment [2] turned out to be 0%. In experiment [3], the “% Rmax, binding to hCD32a-H131” value worked out at 66%. The “% Rmax, binding to hCD32b” value in experiment [4] turned out to be 3%. Besides, in experiment [5], the “% Rmax, binding to hCD64” value turned out to be 3%. In addition, the “% Rmax, binding to hCD16a-V158” value in experiment [6] is given as 1%.

B5: mAb10-IgG2.5 (protein)
constant: ASTKGPSVFPLAPSSRSTSESTAALGCLVKDYFPEPVTVSWNSGALTSGVHTFPAVLQSSGLYSLSSVVTVPSSNFGTQTYTCNVDHKPSNTKVDKTVERKCCVECPPCPAPPVAGPSVFLFPPKPKDTLMISRTPEVTCVVVDVSHEDPEVQFNWYVDGVEVHNAKTKPREEQFNSTFRVVSVLTVVHQDWLNGKEYKCKVSNKGLPAPIEKTISKTKGQPREPQVYTLPPSREEMTKNQVSLTCLVKGFYPSDIAVEWESNGQPENNYKTTPPMLDSDGSFFLYSKLTVDKSRWQQGNVFSCSVMHEALHNHYTQKSLSLSPGK
modifications: left off: another chain or arm of the molecule; small tags and cut ends
Consider B5, for which the “% Rmax, binding to hCD32a-R131” value in experiment [1] amounted to 5%. Also, in experiment [2], the “% Rmax, binding to hCD16B-NA2” value came to 0%. In experiment [4], the “% Rmax, binding to hCD32b” value was 1%. Also, in experiment [5], the “% Rmax, binding to hCD64” value is 1%. The “% Rmax, binding to hCD16a-V158” value in experiment [6] is reported as 1%.

B6: mAb8-IgG2.3G1-AY-V27 (protein)
constant: ASTKGPSVFPLAPCSRSTSESTAALGCLVKDYFPEPVTVSWNSGALTSGVHTFPAVLQSSGLYSLSSVVTVPSSNFGTQTYTCNVDHKPSNTKVDKTVERKSCVECPPCPAPELLGGPSVFLFPPKPKDTLMISRTPEVTCVVVDVEHEDPEVKFNWYVDGVEVHNAKTKPREEQYNSTYRVVSVLTVLHQDWLNGKEYKCKVSNKALPAPIEKTISKAKGQPREPQVYTLPPSREEMTKNQVSLTCLVKGFYPSDIAVEWESNGQPENNYKTTPPVLDSDGSFFLYSKLTVDKSRWQQGNVFSCSVMHEALHNHYTQKSLSLSPGK
modifications: left off: another chain or arm of the molecule
In the case of B6, the “% Rmax, binding to hCD32a-R131” value in experiment [1] turned out to be 80%. In addition, in experiment [2], the “% Rmax, binding to hCD16B-NA2” value stood at 7%. In addition, the “% Rmax, binding to hCD32a-H131” value in experiment [3] was 67%. Further, in experiment [4], the “% Rmax, binding to hCD32b” value worked out at 67%. In experiment [5], the “% Rmax, binding to hCD64” value is recorded as 78%.

B7: mAb10-IgG2.3G1-AY-V27 (protein)
constant: ASTKGPSVFPLAPCSRSTSESTAALGCLVKDYFPEPVTVSWNSGALTSGVHTFPAVLQSSGLYSLSSVVTVPSSNFGTQTYTCNVDHKPSNTKVDKTVERKSCVECPPCPAPELLGGPSVFLFPPKPKDTLMISRTPEVTCVVVDVEHEDPEVKFNWYVDGVEVHNAKTKPREEQYNSTYRVVSVLTVLHQDWLNGKEYKCKVSNKALPAPIEKTISKAKGQPREPQVYTLPPSREEMTKNQVSLTCLVKGFYPSDIAVEWESNGQPENNYKTTPPVLDSDGSFFLYSKLTVDKSRWQQGNVFSCSVMHEALHNHYTQKSLSLSPGK
modifications: left off: another chain or arm of the molecule
In the case of B7, in experiment [1], the “% Rmax, binding to hCD32a-R131” value was 57%. Besides, the “% Rmax, binding to hCD16B-NA2” value in experiment [2] is 3%. Besides, the “% Rmax, binding to hCD32b” value in experiment [4] is 40%. In experiment [5], the “% Rmax, binding to hCD64” value stood at 69%. The “% Rmax, binding to hCD16a-V158” value in experiment [6] is 12%.

Source of the values: US10100129B2, “Antibodies against CD73 and uses thereof” (BRISTOL-MYERS SQUIBB COMPANY, priority 2014, dated 2018).
